Blank lines part the entries; values can stand above or below the molecule they belong to.
How the values were obtained:
[1] = test system: DEVD-pNA hydrolysis activity in 293 cell cytosolic extracts; assay: Cytochrome c/dATP-induced caspase activation (DEVD hydrolysis) in 293 cell cytosolic extracts; type: biochemical, human; settings: for DEVD-pNA hydrolysis, ΔA405 after 15 min: 293 extracts + cytochrome c/dATP, GST-XIAP 0.2 μM, GST controls 2 μM, His6-S5a 5 μM, untreated ≈0.01
Description: (§1) Cells were washed with ice cold buffer A (20 mM Hepes (pH 7.5), 10 mM KCl, 1.5 mM MgCl2, 1 mM EDTA, 1 mM DTT and 0.1 mM PMSF) and suspended in 1 vol buffer A, then incubated on ice for 20 min. 293 cells were disrupted by passage 15× through a 26 gauge needle and Jurkat T cells were disrupted by dounce homogenization in 2 ml using 15 strokes with a pestle B. Cell extracts (10–15 mg total protein/ml) were clarified by centrifugation at 16,000×g for 30 min, then the NaCl concentration was increased by 50 mM. Cytosolic fractions were used immediately or stored frozen at −80° C.
(§2) Caspase activity was assayed by release of either 7-amino-4-trifluoromethyl-coumarin (AFC) or p-nitroanilide (pNA) from benzylyoxycarbonyl-DEVD (SEQ ID NO: 2) or benzylyoxycarbonyl-YVAD (SEQ ID NO: 3) synthetic peptides using a Molecular Devices Spectromax 340 for AFC labeled peptides or Perkin/Elmer LS50B for pNA labeled peptides (see Example II; see, also, Zhou et al., supra, 1997). Cytosolic extracts from 293 cells or Jurkat T cells were used directly (negative control) or were treated with 1 μM cytochrome c and 1 mM dATP or with cytochrome c, dATP and 0.2 μM GST-XIAP. Additional control reactions were performed by substituting 2 μM GST-Bcl-2, GST-Bax, GST-NM23 or GST-CD40 cytosolic domain, or 5 μM His6-S5a protein for GST-XIAP. DEVD-pNA hydrolysis was measured at various times and multiple experiments were performed using several different GST-XIAP preparations.

[2] = test system: DEVD-pNA hydrolysis activity in Jurkat T cell cytosolic extracts; assay: Cytochrome c/dATP-induced caspase activation (DEVD-pNA hydrolysis) in Jurkat T cell cytosolic extracts; type: biochemical; settings: for DEVD-pNA hydrolysis, ΔA405 after 15 min: untreated ≈0.02; for DEVD-pNA hydrolysis, ΔA405 after 20 min: untreated ≈0.025
Description: as §1, §2

caspase-3 [3] = target: T1, caspase-3 (Homo sapiens, UniProt P42574); assay: GST pull-down binding to caspase-3; settings: glutathione-Sepharose beads, immunoblot
T1 construct: to produce the 17–20 kDa mature, fully processed large subunit of the active caspase-3 enzyme; a smaller, fully processed, subunit of about 11 kDa; His6; made in house; host or cells: E. coli BL21(DE3)pLysS
T1 sequence (P42574 29-175 limits assumed): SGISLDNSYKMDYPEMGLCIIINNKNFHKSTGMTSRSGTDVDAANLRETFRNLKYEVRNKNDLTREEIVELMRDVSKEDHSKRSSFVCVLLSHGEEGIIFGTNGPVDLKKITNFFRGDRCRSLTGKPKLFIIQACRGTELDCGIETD
T1 sequence (P42574 176-277 limits assumed): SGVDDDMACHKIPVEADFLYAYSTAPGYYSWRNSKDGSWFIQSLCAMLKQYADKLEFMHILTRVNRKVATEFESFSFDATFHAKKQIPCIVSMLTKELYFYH
Description: (§3) Following incubation at 4° C. for 60 min, the beads were removed by centrifugation and washed twice with 100 vol 50 mM Tris (pH 7.5), 150 mM KCl, 2 mM DTT and 0.025% Triton-X100, then subjected to SDS-PAGE and immunoblot assay (see Example I.B.3).

caspase-7 [4] = target: T2, caspase-7 (Homo sapiens, UniProt P55210); assay: GST pull-down binding to caspase-7; settings: glutathione-Sepharose beads, immunoblot
T2 construct: Purified active caspase concentrations ranged from 0.1 nM to 10 nM; His6; made in house; host or cells: E. coli BL21(DE3)pLysS
T2 sequence (P55210 24-198 limits assumed): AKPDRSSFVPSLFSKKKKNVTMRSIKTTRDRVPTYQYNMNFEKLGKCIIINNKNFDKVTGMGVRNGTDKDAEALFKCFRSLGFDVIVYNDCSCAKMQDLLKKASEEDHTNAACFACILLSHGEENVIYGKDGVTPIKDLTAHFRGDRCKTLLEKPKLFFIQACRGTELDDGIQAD
T2 sequence (P55210 207-303 limits assumed): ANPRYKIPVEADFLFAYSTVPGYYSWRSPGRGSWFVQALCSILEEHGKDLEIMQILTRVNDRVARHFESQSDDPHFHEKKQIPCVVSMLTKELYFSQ
Description: as §3

caspase-3 [5] = target: T1, caspase-3; assay: Inhibition of purified recombinant caspase-3, DEVD substrate hydrolysis and progress curves; type: biochemical; settings: DEVD-pNA hydrolysis
Description: Purified recombinant caspase-1, caspase-3, caspase-6, caspase-7 or caspase-8 were incubated with DEVD-pNA, either alone or with a 10-fold to 50-fold molar excess of GST-XIAP ([…]) and substrate hydrolysis was measured. Purified active caspase concentrations ranged from 0.1 nM to 10 nM. XIAP concentration ranged from 0.1 nM to 500 nM. Assays were performed in caspase buffer (50 mM Tris, pH 7.4, 100 mM NaCl, 10% sucrose, 5–10 mM DTT, 1 mM EDTA and 0.1% CHAPS).
Equilibria were determined from progress curves when substrate hydrolysis reached a steady-state; slopes were calculated by curve fit analysis using the cricket graph program. Experiments were performed using purified recombinant caspase-3, caspase-6, or caspase-7. DEVD-AFC hydrolysis was measured using 0.1 nM caspase and a range of concentrations (0.2 to 12 μM) of recombinant XIAP (rXIAP). […] Average ratio velocities (vi/vo, where “vi” indicates presence of GST-XIAP and “vo” indicates absence of GST-XIAP) were determined.
Caspase activity was determined essentially as described in Example II, using the benzylyoxycarbonyl-DEVD-AFC (SEQ ID NO: 2) substrate and was assayed at 37° C. using the Perkin-Elmer LS50B fluorometric plate reader in the kinetic mode with excitation and emission wavelengths of 400 nm and 505 nm, respectively. […] Reactions were performed in caspase buffer (50 mM Hepes, 100 mM NaCl, 1 mM EDTA, 0.1% CHAPS, 10% sucrose, 5 mM DTT). The inhibition constant, Ki, was calculated as described (Zhou et al., supra, 1997). Immunoblot analysis was performed as described in Example I.B.3.

caspase-7 [6] = target: T2, caspase-7; assay: Inhibition of purified recombinant caspase-7, DEVD substrate hydrolysis and progress curves; type: biochemical; settings: DEVD-pNA hydrolysis
[7] = listed as GST-fusion containing the RING domain

Molecule: GST-Bax: recombinant control protein, GST fusion of Bax [reference compound]
DEVD-pNA hydrolysis, ΔA405 after 15 min [1]: ≈ 0.1
DEVD-pNA hydrolysis, ΔA405 after 15 min [2]: ≈ 0.09
DEVD-pNA hydrolysis, ΔA405 after 20 min [2]: ≈ 0.1

binding of caspase-3 (in words) (caspase-3 [3]): bound
binding of caspase-7 (in words) (caspase-7 [4]): bound
B1: NAIP: neuronal apoptosis inhibitory protein, GST construct (protein, UniProt Q13075 1-1403, looked up)
Baculoviral IAP …: MATQQKASDERISQFDHNLLPELSALLGLDAVQLAKELEEEEQKERAKMQKGYNSQMRSEAKRLKTFVTYEPYSSWIPQEMAAAGFYFTGVKSGIQCFCCSLILFGAGLTRLPIEDHKRFHPDCGFLLNKDVGNIAKYDIRVKNLKSRLRGGKMRYQEEEARLASFRNWPFYVQGISPCVLSEAGFVFTGKQDTVQCFSCGGCLGNWEEGDDPWKEHAKWFPKCEFLRSKKSSEEITQYIQSYKGFVDITGEHFVNSWVQRELPMASAYCNDSIFAYEELRLDSFKDWPRESAVGVAALAKAGLFYTGIKDIVQCFSCGGCLEKWQEGDDPLDDHTRCFPNCPFLQNMKSSAEVTPDLQSRGELCELLETTSESNLEDSIAVGPIVPEMAQGEAQWFQEAKNLNEQLRAAYTSASFRHMSLLDISSDLATDHLLGCDLSIASKHISKPVQEPLVLPEVFGNLNSVMCVEGEAGSGKTVLLKKIAFLWASGCCPLLNRFQLVFYLSLSSTRPDEGLASIICDQLLEKEGSVTEMCVRNIIQQLKNQVLFLLDDYKEICSIPQVIGKLIQKNHLSRTCLLIAVRTNRARDIRRYLETILEIKAFPFYNTVCILRKLFSHNMTRLRKFMVYFGKNQSLQKIQKTPLFVAAICAHWFQYPFDPSFDDVAVFKSYMERLSLRNKATAEILKATVSSCGELALKGFFSCCFEFNDDDLAEAGVDEDEDLTMCLMSKFTAQRLRPFYRFLSPAFQEFLAGMRLIELLDSDRQEHQDLGLYHLKQINSPMMTVSAYNNFLNYVSSLPSTKAGPKIVSHLLHLVDNKESLENISENDDYLKHQPEISLQMQLLRGLWQICPQAYFSMVSEHLLVLALKTAYQSNTVAACSPFVLQFLQGRTLTLGALNLQYFFDHPESLSLLRSIHFPIRGNKTSPRAHFSVLETCFDKSQVPTIDQDYASAFEPMNEWERNLAEKEDNVKSYMDMQRRASPDLSTGYWKLSPKQYKIPCLEVDVNDIDVVGQDMLEILMTVFSASQRIELHLNHSRGFIESIRPALELSKASVTKCSISKLELSAAEQELLLTLPSLESLEVSGTIQSQDQIFPNLDKFLCLKELSVDLEGNINVFSVIPEEFPNFHHMEKLLIQISAEYDPSKLVKLIQNSPNLHVFHLKCNFFSDFGSLMTMLVSCKKLTEIKFSDSFFQAVPFVASLPNFISLKILNLEGQQFPDEETSEKFAYILGSLSNLEELILPTGDGIYRVAKLIIQQCQQLHCLRVLSFFKTLNDDSVVEIAKVAISGGFQKLENLKLSINHKITEEGYRNFFQALDNMPNLQELDISRHFTECIKAQATTVKSLSQCVLRLPRLIRLNMLSWLLDADDIALLNVMKERHPQSKYLTILQKWILPFSPIIQK
modifications: GST tag

inhibition of caspase-3 in vitro (in words) (caspase-3 [5]): had no effect
inhibition of caspase-3 in vitro (in words) (caspase-3 [5]; [7]): no significant effect
inhibition of caspase-7 in vitro (in words) (caspase-7 [6]): had no effect
inhibition of caspase-7 in vitro (in words) (caspase-7 [6]; [7]): no significant effect
B2: GST fusion protein containing the RING domain: GST fusion of XIAP amino acids 338–497 (RING domain) (protein, UniProt P98170 338-497, looked up, fragment)
chain: YINNIHLTHSLEECLVRTTEKTPSLTRRIDDTIFQNPMVQEAIRMGFSFKDIKKIMEEKIQISGSNYKSLEVLVADLVNAQKDSMQDESSQTSLQKEISTEEQLRRLQEEKLCKICMDRNIAIVFVPCGHLVTCKQCAEAVDKCPMCYTVITFKQKIFMS
modifications: GST fusion

binding of caspase-3 (in words) (caspase-3 [3]): bound
binding of caspase-7 (in words) (caspase-7 [4]): bound
B3: c-IAP-1(BIR): construct comprising the BIR domains of c-IAP-1 (positions 1 to 350) (protein)
chain: MHKTASQRLFPGPSYQNIKSIMEDSTILSDWTNSNKQKMKYDFSCELYRMSTYSTFPAGVPVSERSLARAGFYYTGVNDKVKCFCCGLMLDNWKLGDSPIQKHKQLYPSCSFIQNLVSASLGSTSKNTSPMRNSFAHSLSPTLEHSSLFSGSYSSLSPNPLNSRAVEDISSSRTNPYSYAMSTEEARFLTYHMWPLTFLSPSELARAGFYYIGPGDRVACFACGGKLSNWEPKDDAMSEHRRHFPNCPFLENSLETLRFSISNLSMQTHAARMRTFMYWPSSVPVQPEQLASAGFYYVGRNDDVKCFCCDGGLRCWESGDDPWVEHAKWFPRCEFLIRMKGQEFVDEIQG
modifications: left off: a dimerising Fc or GST
DEVD hydrolysis in activated 293 cell cytosolic extracts (in words) ([1]; 3 μM, extracts activated 30 min with cytochrome c and dATP): inhibited DEVD hydrolysis

B4: His6-S5a: recombinant control protein, His6-S5a proteasome subunit (protein, UniProt P55036 1-377, looked up)
26S proteasome non-ATPase …: MVLESTMVCVDNSEYMRNGDFLPTRLQAQQDAVNIVCHSKTRSNPENNVGLITLANDCEVLTTLTPDTGRILSKLHTVQPKGKITFCTGIRVAHLALKHRQGKNHKMRIIAFVGSPVEDNEKDLVKLAKRLKKEKVNVDIINFGEEEVNTEKLTAFVNTLNGKDGTGSHLVTVPPGPSLADALISSPILAGEGGAMLGLGASDFEFGVDPSADPELALALRVSMEEQRQRQEEEARRAAAASAAEAGIATTGTEDSDDALLKMTISQQEFGRTGLPDLSSMTEEEQIAYAMQMSLQGAEFGQAESADIDASSAMDTSEPAKEEDDYDVMQDPEFLQSVLENLPGVDPNNEAIRNAMGSLASQATKDGKKDKKEEDKK
modifications: His6 tag
notes: recombinant control protein, His6-S5a proteasome subunit
DEVD-pNA hydrolysis, ΔA405 after 15 min [1]: ≈ 0.1
DEVD-pNA hydrolysis, ΔA405 after 15 min [2]: ≈ 0.09
DEVD-pNA hydrolysis, ΔA405 after 20 min [2]: ≈ 0.1

inhibition of caspase-3 in vitro (in words) (caspase-3 [5]): potently inhibited
inhibition of caspase-7 in vitro (in words) (caspase-7 [6]): potently inhibited
B5: GST fusion protein containing only the three BIR domains of XIAP: GST fusion of XIAP amino acids 1–337 (three BIR domains) (protein, UniProt P98170 1-337, looked up, fragment)
chain: MTFNSFEGSKTCVPADINKEEEFVEEFNRLKTFANFPSGSPVSASTLARAGFLYTGEGDTVRCFSCHAAVDRWQYGDSAVGRHRKVSPNCRFINGFYLENSATQSTNSGIQNGQYKVENYLGSRDHFALDRPSETHADYLLRTGQVVDISDTIYPRNPAMYSEEARLKSFQNWPDYAHLTPRELASAGLYYTGIGDQVQCFCCGGKLKNWEPCDRAWSEHRRHFPNCFFVLGRNLNIRSESDAVSSDRNFPNSTNLPRNPSMADYEARIFTFGTWIYSVNKEQLARAGFYALGEGDKVKCFHCGGGLTDWKPSEDPWEQHAKWYPGCKYLLEQKGQE
modifications: GST fusion

From US7192728B2, “Screening assays for agents that alter inhibitor of apoptosis (IAP) protein regulation of caspase activity” (The Burnham Institute, priority 1997, dated 2007)
